Test results published in the supplement of paper PMC7125110.
± gives the standard error. For some assays here: Variants at the floor of the assay were thinned out.

B1: glmS ribozyme (parent)
chain: AUAAAAGCGCCAGAACUACAGAAAUGUAGUUGACGAGGAGGAGGUUUAUCGAAUUUUCGGCGGAUGCCUCCAAA

Key:
Settings in all cases: with glucosamine-6-phosphate
glucosamine-6-phosphate [1] = variants of: B1; assay: kcat; higher = faster cleavage; RNA array
Procedure, shortened: (§1)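 Tiles bearing barcoded ribozyme variants, transcribed in situ by E. coli RNA polymerase on sequenced MiSeq chips, were imaged over ~14 h at 37 °C using a hybridised Cy3 probe. Glucosamine-6-phosphate was supplied at 40 μM to 10 mM in HEPES/KCl/Mg(OAc)2 buffer. kobs came from one- or two-exponential decay fits to normalised per-tile medians, and weighted Michaelis–Menten fits then provided kcat and KM.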

glucosamine-6-phosphate [2] = variants of: B1; assay: self-cleavage kobs at 160 uM GlcN6P; higher = faster cleavage; RNA array
Procedure, shortened: as §1

glucosamine-6-phosphate [3] = variants of: B1; assay: self-cleavage kobs at 640 uM GlcN6P; higher = faster cleavage; RNA array
Procedure, shortened: as §1

glucosamine-6-phosphate [4] = variants of: B1; assay: self-cleavage kobs at 2500 uM GlcN6P; higher = faster cleavage; RNA array
Procedure, shortened: as §1

glucosamine-6-phosphate [5] = variants of: B1; assay: self-cleavage kobs at 10000 uM GlcN6P; higher = faster cleavage; RNA array
Procedure, shortened: as §1

glucosamine-6-phosphate [6] = variants of: B1; assay: KM; higher = weaker cofactor use; RNA array
Procedure, shortened: as §1

glucosamine-6-phosphate [7] = variants of: B1; assay: self-cleavage kobs at 40 uM GlcN6P; higher = faster cleavage; RNA array
Procedure, shortened: as §1

Variant | kcat (glucosamine-6-phosphate [1]) | self-cleavage kobs at 160 uM GlcN6P (glucosamine-6-phosphate [2]) | self-cleavage kobs at 640 uM GlcN6P (glucosamine-6-phosphate [3]) | self-cleavage kobs at 2500 uM GlcN6P (glucosamine-6-phosphate [4]) | self-cleavage kobs at 10000 uM GlcN6P (glucosamine-6-phosphate [5]) | KM (glucosamine-6-phosphate [6]) | self-cleavage kobs at 40 uM GlcN6P (glucosamine-6-phosphate [7])
U65G U69C | 0.00467 ± 0.0019 s⁻¹ | 0.000177 ± 4.5e-05 s⁻¹ | 0.000431 ± 8.3e-05 s⁻¹ | 0.00108 ± 0.00019 s⁻¹ | 0.00297 ± 0.0005 s⁻¹ | – | –
U65A U69A | 7.76e-05 ± 5.6e-06 s⁻¹ | 4.06e-05 ± 1.5e-05 s⁻¹ | 6.97e-05 ± 1.3e-05 s⁻¹ | 7.08e-05 ± 1.2e-05 s⁻¹ | – | 134 ± 50 µM | –
C61U G66A | < 1e-05 s⁻¹ | – | < 1e-05 s⁻¹ | – | – | – | –
U65G C67U C68U | 9.98e-05 ± 3.8e-05 s⁻¹ | – | – | 5.84e-05 ± 1.3e-05 s⁻¹ | 6.91e-05 ± 2.9e-05 s⁻¹ | – | –
U57C C71U | 0.000136 ± 1.9e-05 s⁻¹ | – | 9.57e-05 ± 1.9e-05 s⁻¹ | 8.71e-05 ± 2.6e-05 s⁻¹ | 0.000139 ± 1.6e-05 s⁻¹ | – | < 1e-05 s⁻¹
U57C C71G | 1.18e-05 ± 1.2e-06 s⁻¹ | – | – | – | – | – | < 1e-05 s⁻¹
G59U C68A | 2.28e-05 ± 4.9e-06 s⁻¹ | – | – | – | – | – | –
C58G G63C | < 1e-05 s⁻¹ | – | – | < 1e-05 s⁻¹ | – | – | < 1e-05 s⁻¹
C58G G63A | < 1e-05 s⁻¹ | – | – | – | – | – | < 1e-05 s⁻¹
U57G C70U | 7.01e-05 ± 1.4e-05 s⁻¹ | – | 5.96e-05 ± 1.8e-05 s⁻¹ | 4.91e-05 ± 8.8e-06 s⁻¹ | 8.12e-05 ± 1.3e-05 s⁻¹ | – | –
